Assay results from paper PMC12474298 (Viruses, 2025).
Where no end group is shown, it is not given here.

Molecular target: mouse importin α2 lacking the importin-β binding domain (mouse IMPα2ΔIBB) (mouse, UniProt P52293 70-529)
Experiment: fluorescence polarisation
Details: both partners purified

B1: HaHV1 UL36h NLS peptide (residues 1491-1500), FITC/Ahx-labelled (peptide)
peptide: ETKKRRRILE
modifications: not fully specified (N-terminus); also: FITC/Ahx-labelled, position not given here
notes: also called HaHV1 NLS; HaHV1-NLS
In the case of B1, the Kd is reported as 609 nM.
